Assay results taken from US20250320278A1 (LA JOLLA INSTITUTE FOR IMMUNOLOGY, published 2025).
Read-outs that look alike come from different tables or passages of the source.

Tests used:
[1] = target: T1, SARS-CoV-2 N protein RNA-binding domain (SARS-CoV-2, UniProt P0DTC9 44-180); assay: Octet, KD (nM) heat map
[2] = target: T2, SARS-CoV-2 N protein, full-length (SARS-CoV-2, UniProt P0DTC9 1-419); assay: Octet (BLI) kinetics
T2 construct: mature; also called SARS-CoV-2 nucleoprotein

[3] = target: T1, SARS-CoV-2 N protein RNA-binding domain; assay: Octet (BLI) kinetics
[4] = target: T3, SARS-CoV-2 N protein oligomerization domain (SARS-CoV-2, UniProt P0DTC9 247-364); assay: Octet, KD (nM) heat map
T3 construct: also called N olig. domain; OD

[5] = target: T2, SARS-CoV-2 N protein, full-length; assay: Octet, KD (nM) heat map
[6] = target: T2, SARS-CoV-2 N protein, full-length; assay: Octet (BLI) kinetics; remark: listed apart in the source
[7] = target: T3, SARS-CoV-2 N protein oligomerization …; assay: Octet (BLI) kinetics

| Binder | binding result [1] | binding result [4] | Kd [6] [nM] | further results |
| --- | --- | --- | --- | --- |
| NP3-G9 (antibody, V domains shown) VH: EVQLQQSGAELVRPGSSVKISCKASGYAFSNYWMNWVRQRPGQGLEWIGQIYPGNDDTYYNGKFKGKVTLTADKSSTTAYIQLISLTSEDSAVYFCARRPLFYAMDYWGQGTSVTVSS VL: DIQMTQSPSSLAVSLGQRASISCKASQSVDYDGESYMNWYQQKPGQPPKVLIYAASNLESGIPARFSGSGAGTDFTLSIHPVEEEDAATYYCQQSYEDPWTFGGGTKLELK | no binding | – | – | – |
| NP3-H12 (antibody, V domains shown) VH: QIQLVQSGPELKKPGETVKISCKASGYMFTNYGMNWVKQAPGKGLKWMGWINTYTGEPTYADDFKGRFAFSLDISGSTAYLQINNLKNEDMATYFCARTREIWGNVDFPYWGQGTLVTVSA VL: DILMTQAAPSLSVSVGETVTITCRASENIYSDLAWYQHKEGKSPQLLVYAATDLADGVPSRFSGSGSGTQYSLKINSLQSEDFGNYYCQHFWGTPWTFGGGTKLEIK | – | no binding | – | Kd [2]: 0.72 nM; Kd [3]: 1.89 nM |
| NP3-H9 (antibody, V domains shown) VH: QIQLVQSGPELKKPGETVKISCKASGYTFTDYPIHWVKQAPGKGLKWMGWINAETGEPTYADDFKGRFVVSLETSASTAYLQINNLKNEDTATFFCARHYRYDEAWFVYWGQGTLVTVSA VL: DVQITQSPSSLSVSVGETVTITCRASENIYSNLAWYQQKQGKSPQLLVYAATDLADGVPSRFSGSGSGTHYSLKINSLQSEDFGSFYCQHFWGTPWTFGGGTKLEIK | – | no binding | – | Kd [2]: 5.2 nM; Kd [3]: 3.16 nM |
| NP3-C11 (antibody, V domains shown) VH: EVQLVESGGGLVRPGGSLKLSCAASGFTFSDYYMYWVRQTPEKRLEWVATISDGGGYNYYPDSVKGRFTVSRDNAKNNLYLQMSSLKSEDTAMYYCVRDKYDGWGSDFDVWGAGTTVTVSS VL: DIVMTQSPSLMSTSLGERVTMTCTANSSVSSNYMHWYQQKPGSSPKLWIYSTSNLASGVPARFSGSGSGTSYSLTISNMEAEDAATYYCHQFHRSPRTFGGGTKLEIK | – | no binding | – | binding result [5]: binds |
| NP3-A7 (antibody, V domains shown) VH: QIQLVQSGAELVKPGASVKLSCTASGFNIKDTYIHWVRQRPEQGLEWIGRIDPANGDTKYDPKFQDKATLIADTSSNTAYLQLGSLTSEDTAVYYCARYRIYYFDYWGQGTTLTVSS VL: DIQMTQSPASVPVTPGESVSISCRSSKSLLHSNGNTYVYWFLQRPGQSPRLLIYRMSNLASGVPDRFSGSGSGTAITLRISRVEAEDVGVYSCMQHLEYPLTFGAGTKLEIK | no binding | no binding | 2.75 | – |
| NP3-F10 (antibody, V domains shown) VH: EVQLQQSGAELVEPGAPVKLSCKAFGYTFTSYWMNWVKQRPGRGLEWIGRIDPSDSETHYNQNFKDKAALTVDRSSSTAYIHLSSLTSEDSAVYYCAREVTTATKGVFSWLAYWGQGTLVTVSA VL: DIQMTQTTSSLSASLGDRVTISCSASQDISDYLNWYQQKPDGTIKLLIYYTSSLHSGAPSRFSGSGSGTDYSLTISNLEPEDIATYYCQQYSKLPWTFGGGTKLELK | – | no binding | – | Kd [2]: 2.53 nM; Kd [3]: 5.6 nM |
| NP3-B12 (antibody, V domains shown) VH: EVQLQQSGAELMKPGASVKISCKATGYTFSSYWIEWVKQRPGHGLEWIGEFFPGSGNTNYNEKFKGKATFTADTSSNTAYMQLSSLTSEDSAVYYCARRGLYDGYYVRYFDVWGAGTTVTVSS VL: DIVLTQSPASLAVSLGQRATISCKASQSVDYDGYSYMNWYQQKPGQPPKLLIYAASNLESGIPARFSGSGSGTDFTLNIHPVEEEDAATYYCQQSNADPFTFGGGTKLELK | no binding | – | 1 | Kd [7]: 0.78 nM |
| NP3-G12 (antibody, V domains shown) VH: EAQLQQSGAEPMKPGASVKISCKTTGYTFTSDWIEWVQQRPGHGLEWIGEILPGSGNTNYNENFKGKATLTADTSSNTAYMHLSSLTSEDSAVYYCARRLFLRRYFDVWGAGTTVTVSS VL: DIVMTQSPASLAVSLGQRATISCKASQSVDYDGDSYMNWYQQKPGQPPKLLIYAASNLESGIPARFGGGGSGTDFTLNIHPVEEEDAATYYCQQSNEDPFTFGGGTKLELK | no binding | – | – | – |
| NP3-E6 (antibody, V domains shown) VH: EVQLQQSGAELMRPGASVKISCKATGYTFSSYWIEWVKQRPGHGLEWIGEILPGSDNTNYNEKFKGKATLTADTSSNTAYMHLSSLTSEDSAVYSCARRLFLRRYFDVWGAGTTVTVSS VL: DIVLTQSPASLALSLGQRATISCKASQSVDYDGDSYMNWYQQKPGQPPKLLISAASNLESGIPARFGGSGSGTDFTLNIHPVEEEDAATYYCQQSNEDPFTFGGGTKLEIK | no binding | – | 0.48 | – |
| NP3-F7 (antibody, V domains shown) VH: EVQLQQSGAELVRPGSSVKISCKASGYAFSSYWMNWVKQRPGQGLEWIGQIYPGNGDTYYNGKFMGKATLTADKFSSTAYMQLSGLTSEDSAVYFCARRPLFYAMDYWGQGTSVTVSS VL: DIVLTQSPGSLAVSLGQRATISCKASQSVDYDGDSYMNWYQQKPGQPPKLLIYAASNLESGIPVRFSGSGSGTDFTLNIHPVEEEDAATYYCQQSNEDPWTFGGGTKLELK | no binding | – | – | – |
| NP3-C9 (antibody, V domains shown) VH: QIQLVQSGPELKKPGETVKISCKASGYTFTDYSIHWVKQAPGKDLKWVGWINTETGEPTYADDFEGRFAFSLETSASTAFLQINNLKNEDTATYFCSRGAATGFWGQGTTLTVSS VL: DIVLTQSPASLAVSLGQRATISCKASQSVDYDGDSYMNWYQQKPGQPPKLLIYVASNLESGIPARFSGSGSGTDFTLNIHPVEDEDAATYYCQQTNEDPLTFGAGTKLELK | no binding | no binding | 0.75 | – |
| NP3-G8 (antibody, V domains shown) VH: QVQLQQSGPELKKPGETVKISCKASGYTFTDYSMHWVKQAPGKGLKWLGWKNTESGEETFADDFKGRFDFSLETSASTVYLQIKNLKNEDTAAYFCARSGDIYAMDYWGQGTTVTVSS VL: ENVLTQSPASLAVSLGQRATISCKASQSVDYDGGSYMNWYQQKPGQPPKLLIYAASTLESGIPAGFSGSGSGTDFTLNIHPVEEEDAATYYCQQSNEDPWTFGGGTKLEIK | no binding | – | 2.54 | Kd [7]: 1.05 nM |
| NP3-B4 (antibody, V domains shown) VH: EVQLVESGGGLVQPGGSVKLSCLASGFTFSDYYMSWVRQSPEKGLEWVAEIRLESDNYATHYAESVKGKFTISRDDSKSRLYLKMNSLRGEDTGIYYCAFDVYYGGAMDYWGQGTTVTVSS VL: DIQMTQSPSIMSASPGEKVTMTCSASSSVSYMHWYQQKSSTSPKLWIYDTSELASGVPGRFSGSRSGNSYSLTISSMEAEDVATYYCFQGSGYPLTFGGGTKLELK | no binding | – | – | – |
